Molecular target: human insulin receptor, B isoform (exon 11+), wild type (human, UniProt P06213)
Assay: flow cytometry on cells

| binding result | Binder |
| --- | --- |
| binds | monoclonal antibody 83-14 against the human insulin receptor (antibody, V domains shown) VH: QVQLQQSGPELVKPGALVKISCKASGYTFTNYDIHWVKQRPGQGLEWIGWIYPGDGSTKYNEKFKGKATLTADKSSSTAYMHLSSLTSEKSAVYFCAREWAYWGQGTLVTVSA VL: DIQMTQSPSSLSASLGERVSLTCRASQDIGGNLYWLQQGPDGTIKRLIYATSSLDSGVPKRFSGSRSGSDYSLTISSLESEDFVDYYCLQYSSSPWTFGGGTKLEIK |
| binds | monoclonal antibody 83-7 against the human insulin receptor (antibody, V domains shown) VH: QVQLKESGPGLVAPSQSLSITCTVSGFPLTAYGVNWVRQPPGKGLEWLGMIWGDGNTDYNSALKSRLSISKDNSKSQVFLKMNSLQTDDTARYYCARDPYGSKPMDYWGQGTSVTVSS VL: DIVMSQSPSSLVVSVGEKVTMSCKSSQSLLYSSNQKNFLAWYQQKPGQSPKLLIYWASTRESGVPDRFTGSGSGTDFTLTISSVKAEDLAVYYCQQYFRYRTFGGGTKLEIK |
